Columns and labels:
LECs = details: in vitro and in vivo; cited from earlier work
[1] = tested on: A2ECs treated with IL-17A; experiment: A2ECs exposed to IL-17A in vitro; type: cell-based, mouse
Procedure: FIGS. 49A-49B show the role of IL-17A in PTS-induced p53, PAI-1 expression, and apoptosis in A2ECs. (A) IL-17A^−/− mice resist PTS-induced p53 expression and apoptosis in A2ECs. Mice were kept in ambient AIR or exposed to 20 weeks of PTS. A2ECs isolated from WT and IL-17A^−/− mice in AIR or exposed to PTS were analyzed for acetylated/total p53, Sirt1 and activated caspase-3 to assess apoptosis by Western blotting. (B) CSP inhibits IL-17A-induced p53 and PAI-1 expression and apoptosis in A2ECs in vitro. A2ECs isolated from WT mice were treated with PBS or IL-17A (100 ng/ml) in the presence or absence of CSP or control peptide, CP for 24 h in culture dishes. A2EC lysates were immunoblotted for p53, PAI-1, Cl./total caspase-3 and β-actin. WT mice exposed to IL-17A (FIG. 48D) and PTS (FIG. 46A) induce p53 acetylation and Cav1 expression, while inhibiting Sirt1 in A2ECs.
FIGS. 58A-58B show a 7-amino acid fragment of CSP, CSP7 Inhibits IL-17A-induced A2EC apoptosis. (A) Fragments of CSP were synthesized as shown. (B) A2ECs were treated with CSP or its fragments, or CP, 2 h after exposure of cells to IL-17A. A2EC lysates were immunoblotted for acetylated/total p53 and active/total caspase-3 24 h after IL-17A exposure. β-actin levels were evaluated to assess equal loading.
Increased p53 and apoptosis in A2ECs of mice exposed to PTS or IL-17A provided evidence that PTS acts by increasing IL-17A. To confirm that increased IL-17A contributes to the induction of p53 and PAI-1 expression, and apoptosis in A2ECs during PTS-induced lung injury, IL-17A-deficient mice were exposed to 20 weeks of PTS and control mice were kept in ambient air. A2ECs were tested for p53^AC, p53 and Sirt1 expression, and apoptosis. The responses were compared with changes in A2ECs isolated from WT mice exposed to 20 weeks of PTS or AIR. There was marked induction of p53^AC and p53 levels, and apoptosis with parallel suppression of Sirt1 expression in WT mice exposed to 20 weeks of PTS. […] To confirm mitigation of PTS induced lung injury by CSP or CSP7 involves suppression of IL-17A-induced p53, PAI-1 and apoptosis, A2ECs isolated from WT mice were next treated with IL-17A (100 ng/ml) with or without CSP, CSP7 or CP. Control cells were treated with vehicle (PBS) alone. The A2EC lysates were tested for p53 and p53-mediated downstream induction of PAI-1, and apoptosis. […] Further, induction of miR-34a increased p53 and apoptosis in A2ECs without exposure to tobacco smoke, while inhibition of miR-34a using miR-34a antisense (miR-34a-AS) reduced cigarette smoke induced p53 expression and apoptosis. Results of both in vitro and in vivo experiments support an intricate link between miR-34a, p53^AC, p53 and p53-mediated induction of PAI-1 expression, and A2EC apoptosis during PTS lung injury.

[2] = tested on: ATII cells and BALF of IL-17A treated mice; experiment: IL-17A-induced lung injury in mice; type: in vivo, mouse; details: WT mice exposed to recombinant IL-17A, 24 h
Procedure: IL-17A is induced in passive tobacco smoke (PTS) exposed lung injury. […] Further, IL-17A induced ^p15Sp53 was inhibited following treatment of mice CSP7 when compared with those treated with saline and control peptide. To further test whether IL-17A induced ^p15Sp53 alters PAI-1 expression and ATII apoptosis, ATII cells of IL-17A treated mice for PAI-1 and apoptotic markers were analyzed. IL-17A induced the expression of PAI-1 and cl.Cas-3, and inhibited Sirt-1 expression in ATII cells. […] In addition, CSP7 treatment found to inhibit serine phosphorylation of p53 by neutralizing elevated IL-17A due to PTS exposure.
To test the importance of miR-34a mediated deacetylation of p53 IL-17A or PTS induced lung injury, miR34a conditional knockout mice were treated with tamoxifen. miR34a conditional knockout mice treated with IL-17A (3 μg/mice) was administered with CSP7 and CP a day later. ATII cells isolated from these mice were screened for PAI-1, Sirt-1 and apoptotic markers. […] Further, CSP7 treatment had little effect in miR-34a^cKo mice since these mice resist IL-17A or PTS injury.

BAL cells = experiment: BAL cell counts in mice treated with IL-17A or Pre-miR-34a; type: in vivo, mouse

Row | Molecule | BLM-induced apoptosis of LECs and subsequent pulmonary fibrosis (LECs) | PAI-1 expression or apoptosis ([1]; A2ECs lacking p53 expression) | p53 and PAI-1 expression and apoptosis ([1]; mouse and human A2ECs, IL-17A alone) | total and acetylated p53, apoptosis and Cav1 expression in A2ECs [2] | percentage of PMN in total BAL cells (BAL cells) | total BAL cells (BAL cells)
1 | NYHYLESSMTALYTLGH (listed as Homo sapiens) [PP-2, 17 residue peptide] | protected LECs from BLM-induced apoptosis in vitro and in vivo |  |  |  |  | 
2 | IL-17A: recombinant interleukin 17A used to induce A2C injury in vitro and in mice (protein, UniProt Q62386 26-158, looked up) Interleukin-17A: AAIIPQSSACPNTEAKDFLQNVKVNLKVFNSLGAKVSSRRPSDYLNRSTSPWTLHRNEDPDRYPSVIWEAQCRHQRCVNAEGKLDHHMNSVLIQQEILVLKREPESCPFTFRVEKMLVGVGCTCVASIVRQAA |  | failed to induce PAI-1 expression or apoptosis | induced expression of both p53 and PAI-1, and also apoptosis | marked increase in total and acetylated p53, apoptosis and induced Cav1 expression | 11.27% | two-fold increase

— patent US20240082342A1, “PEPTIDE THERAPEUTICS FOR INCREASING LUNG CELL VIABILITY” (BOARD OF REGENTS, THE UNIVERSITY OF TEXAS SYSTEM, priority 2018, published 2024)
